Results on three molecules are retold here after paper PMC10220053, “Molecular basis for Eaf3-mediated assembly of Rpd3S and NuA4” (Cell Discovery, 2023).

Sequences and labels used below:
T1: C-terminal MRG domain of Eaf3 (Eaf3^MRG, aa 218–401) (S. cerevisiae, UniProt Q12432 218-401)
T1 construct: Eaf3, S. cerevisiae, C-terminal MRG domain, aa 218–401
T1 sequence (looked up): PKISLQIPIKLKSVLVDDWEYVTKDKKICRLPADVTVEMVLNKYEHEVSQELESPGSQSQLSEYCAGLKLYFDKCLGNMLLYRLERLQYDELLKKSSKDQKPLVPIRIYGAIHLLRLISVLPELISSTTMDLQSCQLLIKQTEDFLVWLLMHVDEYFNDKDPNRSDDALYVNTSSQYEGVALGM

T2: Rco1^PHD1 alone (S. cerevisiae, Zn2+-bound PHD finger. Limits for PHD1 alone are not given; taken from the SID-deleted truncation Rco1 240-313 in the text, which covers PHD1 (zinc finger 260-309))
T2 chain: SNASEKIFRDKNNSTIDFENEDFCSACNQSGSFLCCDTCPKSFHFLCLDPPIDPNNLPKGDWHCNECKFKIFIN

B1: H3K4me0^1–12 peptide (peptide, UniProt P61830 2-13, looked up)
peptide: ARTKQTARKSTG
notes: Histone H3, residues 1–12, Lys4 unmodified; also called H3K4me0 peptide; unmodified H3K4
B2: Rco1^PHD1–SID (aa 240–376) (domain or fragment, S. cerevisiae, UniProt Q04779 240-376, looked up)
chain: SNASEKIFRDKNNSTIDFENEDFCSACNQSGSFLCCDTCPKSFHFLCLDPPIDPNNLPKGDWHCNECKFKIFINNSMATLKKIESNFIKQNNNVKIFAKLLFNIDSHNPKQFQLPNYIKETFPAVKTGSRGQYSDEN
notes: also called Rco1^SID1–PHD

Assay [1] concerns the target T1, C-terminal MRG domain of Eaf3 …. Put plainly: ITC; SUMO–Eaf7^108–143 or SUMO alone with Eaf3^MRG or the Eaf3^MRG–Rco1^PHD1–SID complex. The note with it: both partners purified. For orientation: In ITC the heat of successive injections is recorded.
A further assay deals with T2, Rco1^PHD1 alone. Briefly: ITC; H3 1–12 peptides with the Eaf3^MRG–Rco1^PHD1–SID complex or with Rco1^PHD1 alone. The note with it: both partners purified.
Assay [2] addresses B2. Put plainly: crystal structure; Eaf3^MRG–Rco1^PHD1–SID–H3K4me0^1–12 ternary complex, 1.60 Å. The note with it: both partners purified.
Assay [3] deals with T1, C-terminal MRG domain of Eaf3 …. Briefly: pull-down; GST pull-down / affinity pull-down of Eaf3^MRG (wild type and mutants) with Rco1^PHD1–SID (wild type, mutants, truncation); which partner carried GST is not told.

A word on the Kd: it is the concentration at which binding is half-saturated. A lower Kd goes with higher affinity. In turn, EETLLELNNRIRVRKQDFTLPWEEYGELILENARKS (domain or fragment, S. cerevisiae, UniProt P53911 108-143, looked up) [SUMO–Eaf7^108–143] returned a Kd in assay [1] of 1 µM.

Molecule B1 showed a Kd with Rco1^PHD1 alone of 110 µM. Besides, in assay [2], the binding result is “binds”. Turning to B2, the binding result in assay [3] was “binds”.
